Measured values taken from paper doi:10.1101/038398.

Experiments:
[1] = target: human iNOS oxygenase domain, recombinant (human); assay: ITC
[2] = target: human iNOS oxygenase domain, recombinant (human); assay: SPR

human iNOS oxygenase domain, recombinant (human), sequence (P35228 whole entry, the tested form may be a part): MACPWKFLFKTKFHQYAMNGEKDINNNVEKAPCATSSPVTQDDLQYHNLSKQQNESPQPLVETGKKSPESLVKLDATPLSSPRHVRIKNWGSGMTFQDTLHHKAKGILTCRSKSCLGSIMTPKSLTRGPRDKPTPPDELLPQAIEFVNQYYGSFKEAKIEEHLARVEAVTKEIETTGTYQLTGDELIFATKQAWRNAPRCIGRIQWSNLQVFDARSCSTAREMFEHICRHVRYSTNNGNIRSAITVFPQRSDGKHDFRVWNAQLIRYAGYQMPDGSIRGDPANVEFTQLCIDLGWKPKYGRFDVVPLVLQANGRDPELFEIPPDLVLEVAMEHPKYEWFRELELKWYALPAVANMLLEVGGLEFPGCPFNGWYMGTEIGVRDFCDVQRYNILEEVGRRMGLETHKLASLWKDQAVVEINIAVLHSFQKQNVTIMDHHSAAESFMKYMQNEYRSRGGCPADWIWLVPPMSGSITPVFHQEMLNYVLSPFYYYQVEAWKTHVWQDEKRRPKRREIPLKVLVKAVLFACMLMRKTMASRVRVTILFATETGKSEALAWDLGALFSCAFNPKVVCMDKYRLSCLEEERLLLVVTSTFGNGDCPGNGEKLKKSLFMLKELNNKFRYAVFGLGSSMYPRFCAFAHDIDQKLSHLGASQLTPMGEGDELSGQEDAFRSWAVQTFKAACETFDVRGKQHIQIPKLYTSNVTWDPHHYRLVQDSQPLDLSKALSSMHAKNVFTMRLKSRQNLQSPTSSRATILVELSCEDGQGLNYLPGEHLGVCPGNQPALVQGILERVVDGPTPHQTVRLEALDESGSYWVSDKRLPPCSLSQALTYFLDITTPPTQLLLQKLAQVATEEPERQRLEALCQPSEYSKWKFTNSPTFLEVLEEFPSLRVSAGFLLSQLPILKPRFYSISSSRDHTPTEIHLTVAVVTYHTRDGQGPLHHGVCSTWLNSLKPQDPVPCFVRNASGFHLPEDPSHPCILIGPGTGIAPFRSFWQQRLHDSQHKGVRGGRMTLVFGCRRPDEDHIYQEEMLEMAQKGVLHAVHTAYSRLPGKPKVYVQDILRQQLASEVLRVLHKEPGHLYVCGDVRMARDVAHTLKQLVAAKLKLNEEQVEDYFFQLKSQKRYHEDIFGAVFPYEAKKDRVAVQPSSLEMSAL

B1: Nitric oxide synthase interacting protein (NOSIP), full length, recombinant (natural protein)
chain: MTRHGKNCTAGAVYTYHEKKKDTAASGYGTQNIRLSRDAVKDFDCCCLSLQPCHDPVVTPDGYLYEREAILEYILHQKKEIARQMKAYEKQRGTRREEQKELQRAASQDHVRGFLEKESAIVSRPLNPFTAKALSGTSPDDVQPGPSVGPPSKDKDKVLPSFWIPSLTPEAKATKLEKPSRTVTCPMSGKPLRMSDLTPVHFTPLDSSVDRVGLITRSERYVCAVTRDSLSNATPCAVLRPSGAVVTLECVEKLIRKDMVDPVTGDKLTDRDIIVLQRGGTGFAGSGVKLQAEKSRPVMQA
[1]
  dH: -38.2 kcal/mol
  stoichiometry N: 0.505
[2]
  Kd: 7.11 nM
